Test results: US20180127505A1, “HUMANIZED ANTI-AXL ANTIBODIES AND THEIR CONJUGATES” (MEDIMMUNE LIMITED, priority 2015, published 2018)
Residue numbers refer to the chain shown, from its start.

B1: Ab2: anti-AXL antibody, VH SEQ ID NO. 2, VL SEQ ID NO. 5, constant region derived from human antibodies (antibody, V domains shown)
VH: MGFKMESQFQVFVFVFLWLSGVDGQVQLVESGGGVVQPGRSLRLSCAASGFTFSSYGMSVRQAPGKGLEWVATISSGGSYTYYPDSVKGRFTISRDNSKNTLYLQMNSLRAEDTAVYYCARHPIYYTYDDTMDYWGQGTTVTVSS
VL: MGFKMESQFQVFVFVFLWLSGVDGEIVLTQSPATLSLSPGERATLSCSASSSVSSGNFHWYQQKPGLAPRLLIYRTSNLASGIPDRFSGSGSGTDFTLTISRLEPEDFAVYYCQQWSGYPWTFGPGTKVDIK
modifications: human constant regions; Synthetic heavy chain variable region 1H12RHA; Synthetic light chain variable region 1H12RKA
notes: 5, constant region derived from human antibodies
B2: Ab3: anti-AXL antibody, VH SEQ ID NO. 2, VL SEQ ID NO. 7, constant region derived from human antibodies (antibody, V domains shown)
VH: B1 VH
VL: B1 VL with A33G, D85A, R102S, P125G, V129L, D130E
modifications: human constant regions; Synthetic heavy chain variable region 1H12RHA; Synthetic light chain variable region 1H12RKB
notes: 7, constant region derived from human antibodies
B3: Ab5: anti-AXL antibody, VH SEQ ID NO. 3, VL SEQ ID NO. 7, constant region derived from human antibodies (antibody, V domains shown)
VH: MGFKMESQFQVFVFVFLWLSGVDGEVQLVESGGGLVQPGGSLRLSCAASGFTFSSYGMSWVRQAPGKGLEWVATISSGGSYTYYPDSVKGRFTISRDNAKNSLYLQMNSLRAEDTAVYYCARHPIYYTYDDTMDYWGQGTLVTVSS
VL: B1 VL with A33G, D85A, R102S, P125G, V129L, D130E
modifications: human constant regions; Synthetic heavy chain variable region 1H12RHB; Synthetic light chain variable region 1H12RKB
notes: as for B2
B4: Ab1 (antibody, V domains shown)
VH: EVQLVESGGDLVKPGGSLKLSCAASGFTFSSYGMSWVRQTPDKRLEWVATISSGGSYTYYPDSVKGRFTISRDNAKNTLYLQMSSLKSEDTAMYYCARHPIYYTYDDTMDYWGQGTSVTVSS
VL: ENVLTQSPAIMAASPGEKVTMTCSASSSVSSGNFHWYQQKPGTSPKLWIYRTSNLASGVPARFSGSGSGTSYSLTISSMEAEDAATYYCQQWSGYPWTFGGGTKLEIK
B5: Ab4: anti-AXL antibody, VH SEQ ID NO. 3, VL SEQ ID NO. 5, constant region derived from human antibodies (antibody, V domains shown)
VH: B3 VH
VL: B1 VL
modifications: human constant regions; Synthetic heavy chain variable region 1H12RHB; Synthetic light chain variable region 1H12RKA
notes: as for B1

These molecules were tested against T1, human Axl-Strep-His (Homo sapiens, UniProt P30530, Q764R) (assay: SPR measurement of antibody affinity, AXL-Strep-His antigen). Details: SPR.
T1 construct: Strep; His; host or cells: transiently transfected CHO cells
T1 sequence (P30530 26-894 Q764R): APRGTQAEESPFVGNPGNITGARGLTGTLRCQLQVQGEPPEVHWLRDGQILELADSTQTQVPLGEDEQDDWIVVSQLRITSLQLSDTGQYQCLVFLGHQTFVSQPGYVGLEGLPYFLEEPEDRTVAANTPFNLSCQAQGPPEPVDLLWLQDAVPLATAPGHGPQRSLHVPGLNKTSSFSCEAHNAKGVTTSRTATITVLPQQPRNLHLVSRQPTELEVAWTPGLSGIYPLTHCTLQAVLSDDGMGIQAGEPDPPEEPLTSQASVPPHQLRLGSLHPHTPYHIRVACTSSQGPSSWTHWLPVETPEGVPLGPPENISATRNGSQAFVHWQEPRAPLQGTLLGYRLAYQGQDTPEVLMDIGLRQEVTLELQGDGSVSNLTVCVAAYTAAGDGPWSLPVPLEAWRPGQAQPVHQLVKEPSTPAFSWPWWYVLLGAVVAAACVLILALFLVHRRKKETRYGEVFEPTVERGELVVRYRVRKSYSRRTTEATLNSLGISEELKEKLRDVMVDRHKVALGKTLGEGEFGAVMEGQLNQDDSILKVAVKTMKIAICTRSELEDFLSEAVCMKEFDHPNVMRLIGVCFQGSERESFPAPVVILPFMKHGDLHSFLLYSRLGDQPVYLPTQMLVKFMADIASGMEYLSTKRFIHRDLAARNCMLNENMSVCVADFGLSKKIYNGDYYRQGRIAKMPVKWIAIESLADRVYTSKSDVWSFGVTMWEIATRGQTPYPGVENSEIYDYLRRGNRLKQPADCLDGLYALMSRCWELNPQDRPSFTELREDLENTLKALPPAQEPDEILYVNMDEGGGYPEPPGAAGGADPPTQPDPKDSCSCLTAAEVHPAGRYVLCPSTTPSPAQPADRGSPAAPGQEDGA
Format: binding
Method: (§1) Protocol 4A: SPR Measurement of Antibody Affinity
(§2) • 1. Sensor Chip CM5 Biacore; Cat. # BR-1000-14 • 2. Amine Coupling Kit (EDC, NHS, ethanolamine-HCl) Biacore; Cat. # BR-1000-50 • 3. Immobilization buffer (10 mM Na acetate, pH 4.0) Biacore; Cat. # BR-1003-49 • 4. 50 mM NaOH Biacore; Cat. # BR-1003-58 • 5. Running buffer (PBS/Tween20 0.05% v/v) • 6. Biacore T200 GE Healthcare • 7. Regeneration solution: 10 mM HCl, 1 M NaCl
(§3) • Activate flow cell 2 with NHS-EDC 420s at 5 μl/min, then inject human AxI-Strep-His (Evitria) (10 μg/mL in 10 mM sodium acetate, pH 4.0) to achieve a coupling of […]. Block with ethanolamine for 420s. Repeat the process for flow cell 1 but with no antigen to create a reference flow cell. 12RU AXL fusion protein was coated. • For the Fc fusion, Human Axl-Fc chimera (R&D Systems #154-AL) (5 μg/mL in 10 mM sodium acetate, pH 4.5) was used with the above protocol. 16RU of AXL-Fc was coated. Protocol with AXL-Strep-His Antigen • Serial 10x dilutions of antibody, from 3000 nM, were made in PBS/Tween20. 2x regeneration cycles were used with 10 mM HCl, 1 M NaCl for 30s at 30 μl/min for both cycles. Start-up solution was PBS/Tween20 and set to 3 cycles. • Sample injection parameters were 120s at 30 μl/min, with 600s dissociation time. • Prime and normalise detector were run before sample application with experimental conditions 25 C and sample storage at 4 C. • Kinetic analysis used BIAevaluation software with bivalent ligand binding model. For chimeric 1H12 with AXL-Strep-His, “heterogeneous ligand” binding model was used due to poor fit with bivalent or monovalent algorithms. • Each antibody dilution was injected twice. Protocol with AXL-Fc Chimera Antigen • The above protocol was used except that the running buffer was HBSEP+, serial 10x dilutions of antibody were from 500 nM in HBSEP+ running buffer and were injected for 180 sec. • Analysis used BIAevaluation software with the bivalent binding model.
In the case of B1, the “affinity for Axl-Strep-His compared with Ab1” value is reported as “higher affinity”. In the case of B2, the “affinity for Axl-Strep-His compared with Ab1” value is reported as “higher affinity”. In the case of B3, the “affinity for Axl-Strep-His compared with Ab1” value is reported as “higher affinity”.

Same assay, conditions: SPR Biacore T200, 25 C, bivalent ligand model (Ab1: heterogeneous ligand model)
With B4 the “ka, AXL-Strep-His antigen” value was 13100 M⁻¹ s⁻¹ and the “kd, AXL-Strep-His antigen” value was 0.000533 s⁻¹. For B1, the “ka, AXL-Strep-His antigen” value was 13200 M⁻¹ s⁻¹ and the “kd, AXL-Strep-His antigen” value was 0.000441 s⁻¹. For B2, the “ka, AXL-Strep-His antigen” value was 19200 M⁻¹ s⁻¹ and the “kd, AXL-Strep-His antigen” value was 0.000636 s⁻¹. B5 was tested, and the “ka, AXL-Strep-His antigen” value was 9759 M⁻¹ s⁻¹ and the “kd, AXL-Strep-His antigen” value was 0.00059 s⁻¹. With B3 the “ka, AXL-Strep-His antigen” value was 18900 M⁻¹ s⁻¹ and the “kd, AXL-Strep-His antigen” value was 0.000435 s⁻¹.

Same assay, conditions: SPR Biacore T200, 25 C, bivalent ligand model (Ab1: heterogeneous ligand model); read-out: KD1, AXL-Strep-His antigen
Molecule B1 has a Kd of 33.4 nM. Work on B2 yielded a Kd of 33.1 nM.

What follows are molecules tested against T2, Human Axl-Fc chimera (Homo sapiens, UniProt P30530) (assay: SPR measurement of antibody affinity, AXL-Fc chimera antigen). Details: not given.
T2 construct: purchased R&D Systems 154-AL
T2 sequence (P30530 with tags, fused parts or gaps isoform P30530-2 limits assumed): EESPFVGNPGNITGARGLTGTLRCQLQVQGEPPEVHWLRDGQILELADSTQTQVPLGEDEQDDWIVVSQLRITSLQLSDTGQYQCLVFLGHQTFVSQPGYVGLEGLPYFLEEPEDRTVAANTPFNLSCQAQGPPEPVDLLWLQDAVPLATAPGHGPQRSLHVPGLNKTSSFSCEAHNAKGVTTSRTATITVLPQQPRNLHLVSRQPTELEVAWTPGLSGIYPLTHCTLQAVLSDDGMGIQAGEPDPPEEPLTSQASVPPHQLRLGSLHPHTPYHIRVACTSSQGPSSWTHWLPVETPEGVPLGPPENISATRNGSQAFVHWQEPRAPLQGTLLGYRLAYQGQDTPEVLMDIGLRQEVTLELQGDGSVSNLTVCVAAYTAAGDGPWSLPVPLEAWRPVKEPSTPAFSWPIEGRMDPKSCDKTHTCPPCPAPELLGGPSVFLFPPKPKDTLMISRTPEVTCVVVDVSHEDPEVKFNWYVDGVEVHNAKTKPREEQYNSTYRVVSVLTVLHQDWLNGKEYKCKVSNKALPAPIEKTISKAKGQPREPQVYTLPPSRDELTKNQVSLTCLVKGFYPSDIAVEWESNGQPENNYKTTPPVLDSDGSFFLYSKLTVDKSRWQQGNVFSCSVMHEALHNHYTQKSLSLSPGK
Format: binding
Method: as §1, §2, §3
With B1 the “affinity for Axl-Fc compared with Ab1” value was “higher affinity”. In the case of B5, the “affinity for Axl-Fc compared with Ab1” value is reported as “higher affinity”.

Same assay, conditions: HBSEP+ running buffer, bivalent binding model
For B4, the “ka, AXL-Fc antigen” value was 30900 M⁻¹ s⁻¹ and the “kd, AXL-Fc antigen” value was 0.000142 s⁻¹. With B1 the Kd was 1.84 nM, the “ka, AXL-Fc antigen” value was 83700 M⁻¹ s⁻¹ and the “kd, AXL-Fc antigen” value was 0.000154 s⁻¹. With B2 the Kd was 8.5 nM, the “ka, AXL-Fc antigen” value was 24500 M⁻¹ s⁻¹ and the “kd, AXL-Fc antigen” value was 0.0002 s⁻¹. For B5, the “ka, AXL-Fc antigen” value was 290000 M⁻¹ s⁻¹ and the “kd, AXL-Fc antigen” value was 0.000396 s⁻¹. B3 was tested, and the “ka, AXL-Fc antigen” value was 20600 M⁻¹ s⁻¹ and the “kd, AXL-Fc antigen” value was 0.000159 s⁻¹.
